± gives the uncertainty stated by the source.
B1: library; numbered along this chain (parent)
chain: MEVVDPQQLGMFTEGELMSVGMDTFIHRIDSTEVIYQPRRKRAKLIGKYLMGDLLGEGSYGKVKEVLDSETLCRRAVKILKKKKLRRIPNGEANVKKEIQLLRRLRHKNVIQLVDVLYNEEKQKMYMVMEYCVCGMQEMLDSVPEKRFPVCQAHGYFCQLIDGLEYLHSQGIVHKDIKPGNLLLTTGGTLKISDLGVAEALHPFAADDTCRTSQGSPAFQPPEIANGLDTFSGFKVDIWSAGVTLYNITTGLYPFEGDNIYKLFENIGKGSYAIPGDCGPPLSDLLKGMLEYEPAKRFSIRQIRQHSWFRKKHPPAEAPVPIPPSPDTKDRWRSMTVVPYLEDLHGADEDEDLFDIEDDIIYTQDFTVPGQVPEEEASHNGQRRGLPKAVCMNGTEAAQLSTKSRAEGRAPNPARKACSASSKIRRLSACKQQ

Variants of: B1
Test: STK11 functional score (HeLa growth suppression), rescaled enrichment; synonymous median = 1, nonsense median = 0 (normalised score)
Conditions: with HeLa; variant type: missense
How it was run: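 HeLa cells carrying an AAVS1 landing pad received codon-optimised STK11 libraries made by codon randomisation (POPCode), integrated by Bxb1, with three regions each transfected three times. Integrants that were BFP-negative and mCherry-positive were sorted by FACS 4–5 days after electroporation and then grown for about two weeks. Tiled amplicons from gDNA were sequenced on NextSeq at ~2 million reads per tile. The functional score is a wild-type-corrected log ratio of post- to pre-selection counts, rescaled to the synonymous and nonsense medians, merged across codons and replicate transfections, and given a bootstrapped error.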

Variant | STK11 functional score
MEVVDPQQLGMFTEGELMSVGMDTFIHRIDSTEVIYQPRRKRAKLIGKYLMGDLLGEGSYGKVKEVLDSETLCRRAVKILKKKKLRRIPNGEANVKKEIQLLRRLRHKNVIQLVDVLYNEEKQKMYMVMEYCVCGMQEMLDSVPEKRFPVCQAHGYFCQLIDRLEYLHSQGIVHKDIKPGNLLLTTGGTLKISDLGVAEALHPFAADDTCRTSQGSPAFQPPEIANGLDTFSGFKVDIWSAGVTLYNITTGLYPFEGDNIYKLFENIGKGSYAIPGDCGPPLSDLLKGMLEYEPAKRFSIRQIRQHSWFRKKHPPAEAPVPIPPSPDTKDRWRSMTVVPYLEDLHGADEDEDLFDIEDDIIYTQDFTVPGQVPEEEASHNGQRRGLPKAVCMNGTEAAQLSTKSRAEGRAPNPARKACSASSKIRRLSACKQQ [G163R] | 0.0418 ± 0.45
MEVVDPQQLGMFTEGELMSVGMDTFIHRIDSTEVIYQPRRKRAKLIGKYLMGDLLGEGSYGKVKEVLDSETLCRRAVKILKKKKLRRIPNGEANVKKEIQLLRRLRHKNVIQLVDVLYNEEKQKMYMVMEYCVCGMQEMLDSVPEKRFPVCQAHGYWCQLIDGLEYLHSQGIVHKDIKPGNLLLTTGGTLKISDLGVAEALHPFAADDTCRTSQGSPAFQPPEIANGLDTFSGFKVDIWSAGVTLYNITTGLYPFEGDNIYKLFENIGKGSYAIPGDCGPPLSDLLKGMLEYEPAKRFSIRQIRQHSWFRKKHPPAEAPVPIPPSPDTKDRWRSMTVVPYLEDLHGADEDEDLFDIEDDIIYTQDFTVPGQVPEEEASHNGQRRGLPKAVCMNGTEAAQLSTKSRAEGRAPNPARKACSASSKIRRLSACKQQ [F157W] | 0.714 ± 0.12
MEVVDPQQLGMFTEGELMSVAMDTFIHRIDSTEVIYQPRRKRAKLIGKYLMGDLLGEGSYGKVKEVLDSETLCRRAVKILKKKKLRRIPNGEANVKKEIQLLRRLRHKNVIQLVDVLYNEEKQKMYMVMEYCVCGMQEMLDSVPEKRFPVCQAHGYFCQLIDGLEYLHSQGIVHKDIKPGNLLLTTGGTLKISDLGVAEALHPFAADDTCRTSQGSPAFQPPEIANGLDTFSGFKVDIWSAGVTLYNITTGLYPFEGDNIYKLFENIGKGSYAIPGDCGPPLSDLLKGMLEYEPAKRFSIRQIRQHSWFRKKHPPAEAPVPIPPSPDTKDRWRSMTVVPYLEDLHGADEDEDLFDIEDDIIYTQDFTVPGQVPEEEASHNGQRRGLPKAVCMNGTEAAQLSTKSRAEGRAPNPARKACSASSKIRRLSACKQQ [G21A] | 1.39 ± 0.38
MEVVDPQQLGMFTEGELMSVGMDTFIHRIDSTEVIYQPRRKRAKLIGKYLMGDLLGEGSYGKVKEVLDSETLCRRAVKILKKKKLRRIPNGEANVKKEIQLLRRLRHKNVIQLVDVLYNEEKQKMYMVMEYCVCGMQEMLDSVPEKRFPVCQAHGYFCQLIDGLEYLHSQGIVHKDIKPGNLLLTTGGTLKISDLGVAEALHPFAADDTCRTSQGSPAFQPPEIANGLDTFSGFKVDIWSAGVTLYNITTGLYPFEGDNIYKLFENIGKGSYAIPGDCGPPLSDLLKGMLEYEPAKRFSIRQIRQHSWFRKKHPPAEAPVPIPPSPDTKDRWRSMTVVPYLEDLHGADEDEDLFDIEDDIIYTQDFTVPGQVPEEEASHNGQRRGLPKAVCMNGTEAAQLVTKSRAEGRAPNPARKACSASSKIRRLSACKQQ [S401V] | 1.41 ± 0.24
MEVVDPQQLGMFTEGELMSVGMDTFIHRIDSTEVIYQPRRKRAKLIGKYLMGDLLGEGSYMKVKEVLDSETLCRRAVKILKKKKLRRIPNGEANVKKEIQLLRRLRHKNVIQLVDVLYNEEKQKMYMVMEYCVCGMQEMLDSVPEKRFPVCQAHGYFCQLIDGLEYLHSQGIVHKDIKPGNLLLTTGGTLKISDLGVAEALHPFAADDTCRTSQGSPAFQPPEIANGLDTFSGFKVDIWSAGVTLYNITTGLYPFEGDNIYKLFENIGKGSYAIPGDCGPPLSDLLKGMLEYEPAKRFSIRQIRQHSWFRKKHPPAEAPVPIPPSPDTKDRWRSMTVVPYLEDLHGADEDEDLFDIEDDIIYTQDFTVPGQVPEEEASHNGQRRGLPKAVCMNGTEAAQLSTKSRAEGRAPNPARKACSASSKIRRLSACKQQ [G61M] | 0.0916 ± 0.085
MEVVDPQQLGMFTEGELMSVGMDTFIHRIDSTEVIYQPRRKRAKLIGKYLMGDLLGEGSYGKVKEVLDSETLCRRAVKILKKKKLRRIPNGEANVKKEIQLLRRLRHKNVIQLVDVLYNEEKQKMYMVMEYCVCGMQEMLDSVPEKRFPVCQAHGYFCQLIDGLEYLHSQGIVHKDIKPGNLLLTTGGTLKISDLGVAEALHPFAADDTCRTSQGSPAFQPPEIANGLDTFSGFKVDIWSAGVTLYNITTGLYPFEGDNIYKLFENIGKGSYAIPGDCGPPKSDLLKGMLEYEPAKRFSIRQIRQHSWFRKKHPPAEAPVPIPPSPDTKDRWRSMTVVPYLEDLHGADEDEDLFDIEDDIIYTQDFTVPGQVPEEEASHNGQRRGLPKAVCMNGTEAAQLSTKSRAEGRAPNPARKACSASSKIRRLSACKQQ [L282K] | 0.565 ± 0.1
MEVVDPQQLGMFTEGELMSVGMDTFIHRIDSTEVIYQPRRKRAKLIGKYLMGDLLGEGSYGKVKEVLDSETLCRRAVKILKKKKLRRIPNGEANVKKEIQLLRRLRHKNVIQLVDVLYNEEKQKMYMVMEYCVCGMQEMLDSVPEKRFPVCQAHGYFCQLIDGLEYLHSQGIVHKDIKPGNLLLTTGGTLKISDLGVAEALHPFAADDTCRTSQGSPAFQPPEIANGLDTFSGFKVDIWSAGVTLYNITTGLYPFEGDNIYKLFENIGKGSYAIPGDCGPPLSDLLKGMLEYEPAKRFSIRQIRQHSWFRKKHPPAEAPVPIPPSPDTKDRLRSMTVVPYLEDLHGADEDEDLFDIEDDIIYTQDFTVPGQVPEEEASHNGQRRGLPKAVCMNGTEAAQLSTKSRAEGRAPNPARKACSASSKIRRLSACKQQ [W332L] | 1.55 ± 0.14

Reference: the supplement of paper PMC12338614
